Three sequences from PMC8764538 can be followed below.

This data set concerns T1, LuxT-6xHis (Vibrio harveyi BB120 (ATCC BAA-1116; reclassified Vibrio campbellii BB120)?), ORF:7f3e8717.
T1 sequence: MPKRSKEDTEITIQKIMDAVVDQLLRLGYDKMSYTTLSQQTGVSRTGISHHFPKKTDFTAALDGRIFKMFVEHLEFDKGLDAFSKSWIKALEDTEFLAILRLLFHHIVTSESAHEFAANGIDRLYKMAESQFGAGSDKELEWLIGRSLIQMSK
Put plainly: EMSA. To be noted: EMSA: 20 nM DNA probe, LuxT-6xHis dimer 20-320 nM (1x-16x); buffer, salt, pH and temperature not given (described in cited ref 18). On the technique in general: Mobility shift assays separate free from complexed probe on a gel.

As for “TGGCATATTTTAAGCTCTTCTCTTTGTAAATCCATCTAACTCACATTTAAATGAGGCCAGAATGAAATCATCCTCAGCATTATGTATTGTATGTCCTTG (double strand) [PluxT promoter probe]”, the binding entry is “binds”.

For the sequence “GTTTGATCTGCTTAATAAATCTGGTTAAAAGTTATTAATTAACTTTAAAAAAATAACCCAAGATACTAGTGTTTTTTCAAATTCAAAGGAGAAGCTCTTGATATGGA (double strand) [PluxC control probe]”, the binding entry was “no binding”.

For “AATCATCAGTTCAATAAAAAAGAGGGCTTCAGCCCTCTTTTTTTATATATTTAATCTTGCCCTCATAATCAGTACGCTGTATTATCAATTACAACCGAACTACGTACTGTTTA (double strand) [PswrZ promoter probe]”, the binding result is on record as “binds”.
